The source of these data is EP2014310A2 (Dyax Corporation, dated 2009).

Like-named read-outs stand apart in the source and are kept apart here.

Experiment [1] concerns the target T1, human KDR-Fc fusion (R&D Systems #357-KD-050) (human, UniProt P35968 20-764).
T1 construct: bought
Description: phage binding screen on KDR-Fc; class legend in paragraph 246.

Experiment [2] has as its target T1, human KDR-Fc fusion (R&D Systems …). The description is as above. This is another data set of the same source.

T1 sequence (P35968 20-764): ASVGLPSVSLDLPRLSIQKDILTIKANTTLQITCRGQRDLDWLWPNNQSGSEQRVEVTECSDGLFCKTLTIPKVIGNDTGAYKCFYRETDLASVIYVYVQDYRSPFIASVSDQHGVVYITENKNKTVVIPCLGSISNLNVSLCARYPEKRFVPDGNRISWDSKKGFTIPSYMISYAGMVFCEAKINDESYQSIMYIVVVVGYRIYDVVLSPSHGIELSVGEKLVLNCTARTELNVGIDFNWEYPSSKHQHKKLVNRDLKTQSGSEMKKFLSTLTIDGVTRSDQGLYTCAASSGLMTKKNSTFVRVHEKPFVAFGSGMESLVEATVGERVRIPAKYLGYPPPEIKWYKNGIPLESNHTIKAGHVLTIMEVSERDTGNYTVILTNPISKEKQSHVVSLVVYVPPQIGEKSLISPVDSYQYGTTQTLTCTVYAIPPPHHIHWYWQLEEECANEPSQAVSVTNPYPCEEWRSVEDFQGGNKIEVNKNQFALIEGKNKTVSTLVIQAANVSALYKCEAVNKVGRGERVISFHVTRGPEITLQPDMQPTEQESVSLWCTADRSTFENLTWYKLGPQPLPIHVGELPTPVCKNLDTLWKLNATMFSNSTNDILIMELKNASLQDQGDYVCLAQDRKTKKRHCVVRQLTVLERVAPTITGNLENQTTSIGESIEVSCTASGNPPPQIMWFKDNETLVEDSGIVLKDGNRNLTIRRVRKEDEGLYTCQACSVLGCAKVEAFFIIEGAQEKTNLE

B1: phage isolate LNICKEDWYYCFLL (peptide)
peptide: LNICKEDWYYCFLL
B1: the binding result in experiment [1] is given as “binds”.

B2: phage isolate SKWCEQDWYYCWLL (peptide)
peptide: SKWCEQDWYYCWLL
With B2, in experiment [1], the binding result was “binds”.

B3: phage isolate YPWCHELSDSVTRFCVPW (peptide)
peptide: YPWCHELSDSVTRFCVPW
Take B3: in experiment [2], the binding result was “binds”.

B4: phage isolate YPWCHEHSDSVTRFCVPW (peptide)
peptide: YPWCHEHSDSVTRFCVPW
As to B4, the binding result in experiment [2] is listed as “binds”.

B5: phage isolate YGVCWEYSWGGEVCLRF (peptide)
peptide: YGVCWEYSWGGEVCLRF
For B5, in experiment [2], the binding result is “binds”.

B6: phage isolate PDWCEEDWYYCWIT (peptide)
peptide: PDWCEEDWYYCWIT
In the case of B6, in experiment [1], the binding result is on record as “binds”.

B7: phage isolate AVTCWALTGHCVEE (peptide)
peptide: AVTCWALTGHCVEE
For B7, in experiment [1], the binding result is “binds”.

B8: phage isolate SDWCRVDWYYCWLM (peptide)
peptide: SDWCRVDWYYCWLM
For B8, in experiment [1], the binding result is “binds”.

B9: phage isolate HYECWYPEGKCYFY (peptide)
peptide: HYECWYPEGKCYFY
B9: the binding result in experiment [1] is on record as “binds”.

B10: phage isolate WVECWWKSGQCYEF (peptide)
peptide: WVECWWKSGQCYEF
In the case of B10, in experiment [1], the binding result is on record as “binds”.

B11: phage isolate WVECWWKYGQCYEF (peptide)
peptide: WVECWWKYGQCYEF
Take B11: in experiment [1], the binding result is recorded as “binds”.

B12: phage isolate WEWCPIDAWECIML (peptide)
peptide: WEWCPIDAWECIML
As for B12, the binding result in experiment [1] is given as “binds”.

B13: phage isolate WYWCHHIGMYCDGF (peptide)
peptide: WYWCHHIGMYCDGF
For the molecule B13, the binding result in experiment [1] was “binds”.

B14: phage isolate GEQCSNLAVACCST (peptide)
peptide: GEQCSNLAVACCST
As to B14, the binding result in experiment [1] is “binds”.

B15: phage isolate SRVCWEYSWGGQICLGY (peptide)
peptide: SRVCWEYSWGGQICLGY
For B15, in experiment [2], the binding result is “binds”.

B16: phage isolate WVQCASDTGKCIMG (peptide)
peptide: WVQCASDTGKCIMG
For B16, the binding result in experiment [1] is recorded as “binds”.

B17: phage isolate FGECWEYFWGGEFCLRV (peptide)
peptide: FGECWEYFWGGEFCLRV
Take B17: the binding result in experiment [2] is on record as “binds”.

B18: phage isolate WIQCDMETGLCTHG (peptide)
peptide: WIQCDMETGLCTHG
B18: the binding result in experiment [1] is “binds”.

B19: phage isolate GINCYPATGKCQMG (peptide)
peptide: GINCYPATGKCQMG
Consider B19, for which, in experiment [1], the binding result was “binds”.

B20: phage isolate GITCYSDTGKCFSF (peptide)
peptide: GITCYSDTGKCFSF
On to B20, for which the binding result in experiment [1] is “binds”.

B21: phage isolate ANWCEEDWYYCFIT (peptide)
peptide: ANWCEEDWYYCFIT
B21: the binding result in experiment [1] was “binds”.

B22: phage isolate RNWCEEDWYYCFIT (peptide)
peptide: RNWCEEDWYYCFIT
B22: the binding result in experiment [1] is recorded as “binds”.

B23: phage isolate VNWCEEDWYYCWIT (peptide)
peptide: VNWCEEDWYYCWIT
As for B23, the binding result in experiment [1] is “binds”.

B24: phage isolate ANWCEEDWYYCYIT (peptide)
peptide: ANWCEEDWYYCYIT
On to B24, for which the binding result in experiment [1] is reported as “binds”.

B25: phage isolate SNWCEEDWYYCYIT (peptide)
peptide: SNWCEEDWYYCYIT
As to B25, the binding result in experiment [1] is reported as “binds”.

B26: phage isolate ANWCEEDWYYCWIT (peptide)
peptide: ANWCEEDWYYCWIT
On to B26, for which the binding result in experiment [1] is “binds”.

B27: phage isolate PPLCYFVGTQEWHHCNPF (peptide)
peptide: PPLCYFVGTQEWHHCNPF
For the molecule B27, in experiment [2], the binding result is reported as “binds”.

B28: phage isolate PEWCEVDWYYCWLL (peptide)
peptide: PEWCEVDWYYCWLL
B28: in experiment [1], the binding result was “binds”.

B29: phage isolate KELCEDDWYYCYLM (peptide)
peptide: KELCEDDWYYCYLM
Take B29: the binding result in experiment [1] is recorded as “binds”.

B30: phage isolate GVECYKHSGMCRSW (peptide)
peptide: GVECYKHSGMCRSW
Take B30: in experiment [1], the binding result was “binds”.

B31: phage isolate WLECYAEFGHCYNF (peptide)
peptide: WLECYAEFGHCYNF
Consider B31, for which, in experiment [1], the binding result is reported as “binds”.

B32: phage isolate WLECYTEFGHCYNF (peptide)
peptide: WLECYTEFGHCYNF
As to B32, the binding result in experiment [1] is given as “binds”.

B33: phage isolate WWECKREEYRNTTWCAWA (peptide)
peptide: WWECKREEYRNTTWCAWA
As for B33, the binding result in experiment [2] is recorded as “binds”.

B34: phage isolate GVWCDMVTGWCYHG (peptide)
peptide: GVWCDMVTGWCYHG
Take B34: in experiment [1], the binding result was “binds”.

B35: phage isolate GITCYSATGKCQMW (peptide)
peptide: GITCYSATGKCQMW
Consider B35, for which the binding result in experiment [1] is on record as “binds”.

B36: phage isolate PNTCETFDLYCWWI (peptide)
peptide: PNTCETFDLYCWWI
Turning to B36, the binding result in experiment [1] is “binds”.

B37: phage isolate SRVCWEDSWGGEVCFRY (peptide)
peptide: SRVCWEDSWGGEVCFRY
B37: the binding result in experiment [2] is on record as “binds”.

B38: phage isolate PAQCWESNYQGIFFCDNP (peptide)
peptide: PAQCWESNYQGIFFCDNP
Take B38: the binding result in experiment [2] is “binds”.

B39: phage isolate SSVCFEYSWGGEVCFRY (peptide)
peptide: SSVCFEYSWGGEVCFRY
In the case of B39, the binding result in experiment [2] was “binds”.

B40: phage isolate TGNCQEDWYYCWYF (peptide)
peptide: TGNCQEDWYYCWYF
B40: the binding result in experiment [1] is reported as “binds”.

B41: phage isolate VWECAKTFPFCHWF (peptide)
peptide: VWECAKTFPFCHWF
With B41, the binding result in experiment [1] is given as “binds”.

B42: phage isolate DFNCKMIDGFCLLK (peptide)
peptide: DFNCKMIDGFCLLK
On to B42, for which the binding result in experiment [1] is listed as “binds”.

B43: phage isolate PDWCAADWYYCYIT (peptide)
peptide: PDWCAADWYYCYIT
Regarding B43, the binding result in experiment [1] is on record as “binds”.

B44: phage isolate HWECYSDTGKCWFF (peptide)
peptide: HWECYSDTGKCWFF
On to B44, for which the binding result in experiment [1] is recorded as “binds”.

B45: phage isolate WIECHYKTGHCIHS (peptide)
peptide: WIECHYKTGHCIHS
As to B45, the binding result in experiment [1] is “binds”.

B46: phage isolate FSVCWEYSWGGEVCLRQ (peptide)
peptide: FSVCWEYSWGGEVCLRQ
Consider B46, for which the binding result in experiment [2] is reported as “binds”.

B47: phage isolate WTECHYATGKCHSF (peptide)
peptide: WTECHYATGKCHSF
On to B47, for which the binding result in experiment [1] is recorded as “binds”.

B48: phage isolate GSWCEMRQDVGKWNCFSD (peptide)
peptide: GSWCEMRQDVGKWNCFSD
On to B48, for which the binding result in experiment [2] was “binds”.

B49: phage isolate PTWCEDDWYYCWLF (peptide)
peptide: PTWCEDDWYYCWLF
Take B49: the binding result in experiment [1] is on record as “binds”.

B50: phage isolate YVDCYYDTGRCYHQ (peptide)
peptide: YVDCYYDTGRCYHQ
Consider B50, for which the binding result in experiment [1] is “binds”.

B51: phage isolate SRVCWEYSWGGEVCYRV (peptide)
peptide: SRVCWEYSWGGEVCYRV
With B51, the binding result in experiment [2] was “binds”.

B52: phage isolate HWWCAFQPQECEYW (peptide)
peptide: HWWCAFQPQECEYW
B52: in experiment [1], the binding result is “binds”.

B53: phage isolate WRICWESSWGGEVCIGH (peptide)
peptide: WRICWESSWGGEVCIGH
Take B53: the binding result in experiment [2] is given as “binds”.

B54: phage isolate TITCWMDTGHCMHE (peptide)
peptide: TITCWMDTGHCMHE
In the case of B54, the binding result in experiment [1] is reported as “binds”.

B55: phage isolate WIQCNSITGHCTSG (peptide)
peptide: WIQCNSITGHCTSG
For B55, in experiment [1], the binding result is listed as “binds”.

B56: phage isolate DHMCRSPDYQDHVFCMYW (peptide)
peptide: DHMCRSPDYQDHVFCMYW
On to B56, for which the binding result in experiment [2] was “binds”.

B57: phage isolate WIECYHPDGICYHF (peptide)
peptide: WIECYHPDGICYHF
As for B57, the binding result in experiment [1] is “binds”.

B58: phage isolate WIICDGNLGWCWEG (peptide)
peptide: WIICDGNLGWCWEG
Regarding B58, in experiment [1], the binding result is given as “binds”.

B59: phage isolate WVECFMDTGACYTF (peptide)
peptide: WVECFMDTGACYTF
B59: the binding result in experiment [1] is on record as “binds”.

B60: phage isolate SVECFMDTGACYTF (peptide)
peptide: SVECFMDTGACYTF
With B60, in experiment [1], the binding result is given as “binds”.

B61: phage isolate LIECYAHTGLCFDF (peptide)
peptide: LIECYAHTGLCFDF
Turning to B61, the binding result in experiment [1] is given as “binds”.

B62: phage isolate LVMCISPEGYCYEI (peptide)
peptide: LVMCISPEGYCYEI
In the case of B62, the binding result in experiment [1] is recorded as “binds”.

B63: phage isolate WIQCDRKAGRCSRG (peptide)
peptide: WIQCDRKAGRCSRG
Turning to B63, in experiment [1], the binding result is “binds”.
